Assay results from patent US20090324603A1 (VAN ANDEL RESEARCH INSTITUTE, published 2009).

B1: anti-Met scFv-S1 (scFv)
scFv: ELQMTQSPSLLSASTGDRVTISCRASQSISSYLNWYQQKPGKAPKLLIYTRSSLQSGVPSRFSGSGSGTDFTLTISSLQPEDFATYYCQQSYSTPHTFGQGTKLEIKGGSSRSSSSGGGGSGGGGEVQLVESGGGVVQPGRSLRLSCAASGFTFSSYAMHWVRQAPGKGLEWVAVIWYDGSNRYYADSVKGRFTISRDNSKNTLYLQMNSLRAEDTAVYYCASQATEGLIWGQGTLVTVSP
notes: also called scFv Si; S1 phage
B2: anti-Met Fab-Met-2 (Fab, V domains shown)
VH: EVQLVESGGGVVQPGRSLRLSCAASGFTFSSYAMHWVRQAPGKGLEWVAVIWYDGSNRYYADSVKGRFTISRDNSKNTLYLQMNSLRAEDTAVYYCASQATEGLIWGQGTLVTVSP
VL: ELQMTQSPSLLSASTGDRVTISCRASQSISSYLNWYQQKPGKAPKLLIYTRSSLQSGVPSRFSGSGSGTDFTLTISSLQPEDFATYYCQQSYSTPHTFGQGTKLEIKR

Tests used:
[1] = biological target: T1, recombinant c-Met antigen (human, UniProt P08581 25-932, limits assumed); experiment: non-competitive ELISA, Kd of scFv-S1 against Kd of the original Fab
T1 construct: also called immobilized Met antigen; human Met antigen
T1 sequence (P08581 25-932 limits assumed): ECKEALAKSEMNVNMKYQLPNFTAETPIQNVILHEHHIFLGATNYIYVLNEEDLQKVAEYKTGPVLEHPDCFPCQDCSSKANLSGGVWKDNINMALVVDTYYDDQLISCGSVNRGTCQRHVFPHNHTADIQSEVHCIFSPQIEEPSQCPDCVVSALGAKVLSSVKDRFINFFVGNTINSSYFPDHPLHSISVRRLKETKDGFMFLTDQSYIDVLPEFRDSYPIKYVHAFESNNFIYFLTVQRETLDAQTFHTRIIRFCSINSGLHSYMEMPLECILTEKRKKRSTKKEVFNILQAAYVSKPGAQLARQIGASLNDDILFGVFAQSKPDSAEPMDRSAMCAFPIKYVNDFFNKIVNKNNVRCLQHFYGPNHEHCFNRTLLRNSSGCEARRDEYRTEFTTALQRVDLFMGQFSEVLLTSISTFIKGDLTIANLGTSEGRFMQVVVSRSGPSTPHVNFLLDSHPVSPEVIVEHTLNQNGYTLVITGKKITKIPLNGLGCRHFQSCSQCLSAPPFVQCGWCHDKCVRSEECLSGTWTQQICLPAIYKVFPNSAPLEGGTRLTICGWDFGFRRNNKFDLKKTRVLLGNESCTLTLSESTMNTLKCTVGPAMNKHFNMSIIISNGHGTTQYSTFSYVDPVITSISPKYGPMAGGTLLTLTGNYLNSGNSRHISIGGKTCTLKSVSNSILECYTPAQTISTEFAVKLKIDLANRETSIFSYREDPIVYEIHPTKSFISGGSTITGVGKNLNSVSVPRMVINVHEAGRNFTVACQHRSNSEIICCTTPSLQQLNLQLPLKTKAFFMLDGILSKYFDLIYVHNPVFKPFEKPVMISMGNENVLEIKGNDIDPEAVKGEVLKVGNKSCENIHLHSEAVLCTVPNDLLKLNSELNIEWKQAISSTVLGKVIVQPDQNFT
Procedure: (§1) The most commonly used formula was established by David Beatty and the equation was Kaff=(n−1)/(2{n[Ab′]ₜ−[Ab]ₜ}) (n=[Ag]/[Ag′]). This method utilized OD-50 of the sigmoid curve and obviated the need for affinity purification of antibody used as standard. Using serial dilutions of both antigen ([Ag], [Ag′]) and antibody (scFv antibody), the affinity constant (Kaff) was measured by non-competitive ELISA. Two sigmoid curves of optical density (OD) versus logarithms of antibody concentrations were estimated by SPSS 10.0 software. The maximum value of OD (OD-100) of each curve was computed respectively and OD-50, half of OD-100, was obtained. Then the concentrations of antibody corresponding to OD-50 on the curves, named [Ab]ₜ and [Ab′]ₜ were calculated. For [Ag′]=½[Ag], Kaff=1/{2[Ab′]ₜ−[Ab]ₜ}.

[2] = biological target: T1, recombinant c-Met antigen; experiment: non-competitive ELISA with serial dilutions of both Met and scFv (Beatty method)
Procedure: as §1

[3] = biological target: human c-Met (HGF/SF receptor) on S114 and MKN45 cells (human, UniProt P08581 25-1390); experiment: cell-based or functional assay
Chain of human c-Met (HGF/SF receptor) on S114 and MKN45 cells (P08581 25-1390): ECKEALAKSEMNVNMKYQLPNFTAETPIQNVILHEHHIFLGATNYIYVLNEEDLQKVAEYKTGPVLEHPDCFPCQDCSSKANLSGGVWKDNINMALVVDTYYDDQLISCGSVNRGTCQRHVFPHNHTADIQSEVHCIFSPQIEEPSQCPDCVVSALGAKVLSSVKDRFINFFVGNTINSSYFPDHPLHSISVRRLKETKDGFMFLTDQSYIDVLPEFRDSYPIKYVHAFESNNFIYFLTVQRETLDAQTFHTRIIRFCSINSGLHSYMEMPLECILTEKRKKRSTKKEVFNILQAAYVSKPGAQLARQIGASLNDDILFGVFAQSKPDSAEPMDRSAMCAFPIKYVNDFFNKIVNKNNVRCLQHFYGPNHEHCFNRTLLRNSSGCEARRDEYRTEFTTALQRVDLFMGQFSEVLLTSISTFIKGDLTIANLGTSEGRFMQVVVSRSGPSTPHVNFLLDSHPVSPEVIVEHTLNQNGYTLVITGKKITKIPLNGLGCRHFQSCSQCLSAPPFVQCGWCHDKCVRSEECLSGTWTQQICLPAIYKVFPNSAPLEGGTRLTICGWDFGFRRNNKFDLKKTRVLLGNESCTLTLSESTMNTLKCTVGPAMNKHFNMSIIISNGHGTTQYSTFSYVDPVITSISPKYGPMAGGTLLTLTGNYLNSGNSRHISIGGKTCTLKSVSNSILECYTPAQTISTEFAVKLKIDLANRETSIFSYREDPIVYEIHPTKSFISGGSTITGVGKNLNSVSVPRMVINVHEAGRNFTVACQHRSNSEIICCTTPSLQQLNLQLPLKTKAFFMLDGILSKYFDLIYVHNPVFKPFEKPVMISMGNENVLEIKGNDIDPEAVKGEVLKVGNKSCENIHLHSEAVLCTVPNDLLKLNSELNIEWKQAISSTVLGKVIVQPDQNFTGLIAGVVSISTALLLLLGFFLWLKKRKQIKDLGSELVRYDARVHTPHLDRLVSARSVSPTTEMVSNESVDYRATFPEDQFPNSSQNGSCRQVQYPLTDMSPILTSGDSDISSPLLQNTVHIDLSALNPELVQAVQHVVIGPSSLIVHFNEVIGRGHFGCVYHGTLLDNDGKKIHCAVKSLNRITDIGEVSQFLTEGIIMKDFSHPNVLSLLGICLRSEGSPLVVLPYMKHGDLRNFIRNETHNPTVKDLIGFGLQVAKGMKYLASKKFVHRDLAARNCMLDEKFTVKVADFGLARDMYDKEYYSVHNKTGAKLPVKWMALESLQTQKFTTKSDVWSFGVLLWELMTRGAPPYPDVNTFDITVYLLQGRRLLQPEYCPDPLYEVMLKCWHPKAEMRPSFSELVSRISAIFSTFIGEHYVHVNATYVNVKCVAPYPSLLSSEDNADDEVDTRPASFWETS

Binder	fold increase in affinity against the original Fab [1]	Kd [2]	inhibition ratio of S114 cells incubated with 800 ng Fab and Hum-ZAP, 72 hrs [3]	inhibition ratio of S114 cells incubated with 800 ng Fab and Hum-ZAP, 96 hrs [3]
B1	117 times	0.0515 µM		
B2			73.8%	62.7%
